Source: patent US20150216948A1, “CYTOCHROME P450 SUICIDE GENE SYSTEM” (priority 2012, published 2015)
Changes are numbered by the printed parent chain.

B1: h-P427: human CYP4B1 with serine at position 427 mutated back to proline (protein)
chain: MVPSFLSLSFSSLGLWASGLILVLGFLKLIHLLLRRQTLAKAMDKFPGPPTHWLFGHALEIQETGSLDKVVSWAHQFPYAHPLWFGQFIGFLNIYEPDYAKAVYSRGDPKAPDVYDFFLQWIGKGLLVLDGPKWFQHRKLLTPGFHYDVLKPYVAIFADSTRIMLEKWEKKACEGKSFDIFSDVGHMALDTLMKCTFGKGDSGLNHRDSSYYVAVSELTLLMQQRIDSFQYHNDFIYWLTPHGRRFLRACQVAHDHTDQVIRERKAALQDEKVRKKIQNRRHLDFLDILLGARDEDDIKLSDADLRAEVDTFMFEGHDTTTSGISWFLYCMALYPEHQHRCREEVREILGDQDFFQWDDLGKMTYLTMCIKESFRLYPPVPQVYRQLSKPVTFVDGRSLPAGSLISMHIYALHRNSAVWPDPEVFDPLRFSTENASKRHPFAFMPFSAGPRNCIGQQFAMSEMKVVTAMCLLRFEFSLDPSRLPIKMPQLVLRSKNGFHLHLKPLGPGSGK
B2: CYP4B1 P427 mut12: modified human CYP4B1 P427 protein comprising 12 further amino acid exchanges found in other human CYP4 proteins (protein)
chain: B1 chain with E166D, C173R, S182C, N205G, V213L, D227V
B3: r-S422: rabbit CYP4B1 with proline-to-serine exchange at position 422 (protein, UniProt P15128 1-506, looked up, variant P422S)
Cytochrome P450 4B1: MLGFLSRLGLWASGLILILGFLKLLRLLLRRQRLARAMDSFPGPPTHWLFGHALEIQKTGSLDKVVTWTQQFPYAHPLWVGQFIGFLNIYEPDYAKAVYSRGDPKAPDVYDFFLQWIGKGLLVLDGPKWFQHRKLLTPGFHYDVLKPYVAIFADSTRIMLEKWEKKACEGKSFDIFSDVGHMALDTLMKCTFGKGDSGLNHRDSSYYVAVSELTLLMQQRIDSFQYHNDFIYWLTPHGRRFLRACRAAHDHTDRVIRQRKAALQDEKEREKIQNRRHLDFLDILLDVRGESGVQLSDTDLRAEVDTFMFEGHDTTTSGISWFLYCMALYPEHQQRCREEVREILGDQDSFQWEDLAKMTYLTMCMKECFRLYPPVPQVYRQLSKPVSFVDGRSLPAGSLISLHIYALHRNSDVWPDPEVFDSLRFSPENSSGRHPYAFIPFSAGPRNCIGQQFAMNEMKVVTALCLLRFEFSVDPLRLPIKLPQLVLRSKNGIHLYLKPLGPKAEK
B4: coop H-P427: h-P427 expressed from cDNA optimized for human codon usage (protein, listed as Homo sapiens)
chain: MVPSFLSLSFSSLGLWASGLILVLGFLKLIHLLLRRQTLAKAMDKFPGPPTHWLFGHALEIQETGSLDKVVSWAHQFPYAHPLWFGQFIGFLNIYEPDYAKAVYSRGDPKAPDVYDFFLQWIGRGLLVLEGPKWLQHRKLLTPGFHYDVLKPYVAVFTESTRIMLDKWEEKAREGKSFDIFCDVGHMALNTLMKCTFGRGDTGLGHRDSSYYLAVSDLTLLMQQRLVSFQYHNDFIYWLTPHGRRFLRACQVAHDHTDQVIRERKAALQDEKVRKKIQNRRHLDFLDILLGARDEDDIKLSDADLRAEVDTFMFEGHDTTTSGISWFLYCMALYPEHQHRCREEVREILGDQDFFQWDDLGKMTYLTMCIKESFRLYPPVPQVYRQLSKPVTFVDGRSLPAGSLISMHIYALHRNSAVWPDPEVFDSLRFSTENASKRHPFAFMPFSAGPRNCIGQQFAMSEMKVVTAMCLLRFEFSLDPSRLPIKMPQLVLRSKNGFHLHLKPLGPGSGK

Columns and labels:
[1] = test system: HepG2 cells; assay: Half-life of CYP4B1/EGFP fusion proteins after cycloheximide (western blot, FACS); type: cell-based, human; details: EGFP fusion, 50 μg/ml cycloheximide, G418-selected HepG2 cells
Description: FIGS. 3 C and D show CYP4B1 stability as analysed by western blotting and by flow cytometry. The studies on protein expression and stability were performed with the rabbit and human CYP4B1/EGFP fusion construction in the lentiviral vector with the additional IRES-neomycin cassette. Half-life analysis was performed by adding 50 μg/ml cycloheximide to the transduced and G418-selected HepG2 cells. Samples were collected at the indicated time points.
(§1) Next, it was analyzed whether the different activities of the human and the rabbit proteins in processing 4-IPO could be explained by differences in protein half-life. However, as no antibody was available that can detect both CYP4B1 proteins, EGFP fusion constructs were generated. With these constructs, EGFP antibodies can be utilized to visualize and compare the expression levels and the half-lives of the fusion proteins in cells by western blots. EGFP expression can also be used for flow cytometry assessment of the expression levels due to the fluorescent properties of the fusion proteins. 5′- and 3′-fusions of EGFP with the native rabbit P422 and the human P427 CYP4B1 proteins were cloned in LV vectors with an IRES-NEO (NEO=neomycin phosphotransferase cDNA, npt II) and stably expressed in HepG2 cells (FIG. 3 B). For comparison, the corresponding IRES-EGFP constructs were also included, as these vectors had already been used in previous experiments and activity measurements thus already existed. Transduced cells were incubated for 24, 48 and 72 hours with increasing concentration of 4-IPO. Cultures were then harvested, cells stained with propidium iodine and subsequently analyzed for survival of transduced EGFP+ cells by flow cytometry (FIG. 3 A).
After standard inhibition of de novo protein synthesis by cycloheximide, the half-life of the CYP4B1 proteins in stably transduced and G418-resistant HepG2 cells was assessed by determining the protein expression levels over time either in western blotting or in FACS analysis as EGFP fluorescence. […] For the human native protein (h-S427), the mean fluorescence indicates a short average half-life of only 6 hours.

[2] = test system: primary human T-cells; assay: 4-IPO toxicity in transduced primary T-cells; type: cell-based
Source text: Compared to the HepG2 liver cells, primary T-cells might not provide an optimal environment for the function of P450 cytochromes (although the necessary reductase is ubiquitously expressed) and the infection of primary T-cells is considerably more complex.
The T cells were isolated by Ficoll and stimulated with CD3, CD28 and IL2 for 3 days before they were infected with lentiviral vectors using fibronectin. For optimal toxicity in T cells, the suicide genes were not expressed as EGFP fusions proteins but a IRES-EGFP-WPRO vector construct was used. […] However, after 24 hours over 70% of the transgenic T cells were eliminated by CYP4B1 P427 mut12. […] The determination of the virus titer was based on the titration of the reference cell line HT1080.

[3] = test system: HepG2 cells; assay: 4-IPO toxicity assay: survival of transduced HepG2 cells by flow cytometry (propidium iodine); type: cell-based, human; details: for 4-IPO processing activity / cell killing (in words): transduced cells challenged with 4-IPO; for cell survival rates upon administration of 4-IPO: transduced cells
Source text: Initially, the serine at position 427 in the human CYP4B1 was mutated back to proline (h-P427), which is present at this position in all CYP4B1 proteins. Additionally a proline to serine exchange was created in the native rabbit CYP4B1 enzyme at the corresponding position 422 (r-P422). To immediately exclude the possibility that the different activities between human and the rabbit protein isoforms are simply due to differences in mRNA stability, the human CYP4B1 cDNA (SEQ ID NO.: 2) was optimized for human-codon usage (SEQ ID NO.: 3) by de novo synthesis with silent mutagenesis of the cDNA, thus removing internal TATA-boxes, instability motives, RNA secondary structures and (cryptic) splice donor/acceptor sites and ensuring an average GC content of around 60%. All cDNAs were cloned into the same lentiviral (LV) HIV1-based expression vector and LV supernatants produced by plasmid transfection in HEK293T cells. Subsequently, the two rabbit and the four human cDNAs were stably expressed in the human liver cell line HepG2. Stably expressing transduced cells were challenged after five days with increasing concentrations of 4-IPO for 24, 48 and 72 hours and then the survival of cells analyzed by flow cytometry using propidium iodine for live/dead cell discrimination.
as §1

| Molecule | protein half-life [1] | killing of primary T-cells with 4-IPO (in words) ([2]; 24 h and 72 h exposure to increasing doses of 4-IPO, EGFP fusions, FIG. 7 B) | 4-IPO processing activity / cell killing (in words) [3] | reduction in cell survival rates ([3]; transduced cells with 4-IPO, FIG. 2) | cell survival rates upon administration of 4-IPO ([3]; FIG. 2) | transgenic T cells eliminated ([2]; after 24 hours, 4-IPO, IRES-EGFP-WPRO vector, FIG. 17) | transduced HepG2 cells eliminated / dead ([3]; after 24 hours of 4-IPO treatment, FIG. 2) [%] |
| --- | --- | --- | --- | --- | --- | --- | --- |
| B1 | 20 h | can be killed within three days | rendered this enzyme active for processing 4-IPO | about 50% | about 45% |  |  |
| B2 |  |  | equally good killing curve as the modified human CYP4B1 P427 mut18 |  |  | over 70% |  |
| B3 | approx. 30 hours |  |  |  |  |  | 73 |
| B4 |  |  |  |  | 37% |  |  |
